In article PMC4604100, “Melanocortin agonists stimulate lipolysis in human adipose tissue explants but not in adipocytes” (BMC Research Notes, 2015):

Columns and labels:
Conditions in all cases: modification not given
[1] = target: Melanocortin receptor 1 (Homo sapiens), Q01726; assay: 125I-NDP-α-MSH competition binding (membrane filtration)
[2] = target: Melanocortin receptor 5 (Homo sapiens), P33032; assay: competition
[3] = target: Melanocortin receptor 4 (Homo sapiens), P32245; assay: competition
[4] = target: Melanocortin receptor 3 (Homo sapiens), P41968; assay: competition
Chain of Melanocortin receptor 3 (Homo sapiens), P41968 (P41968 whole entry): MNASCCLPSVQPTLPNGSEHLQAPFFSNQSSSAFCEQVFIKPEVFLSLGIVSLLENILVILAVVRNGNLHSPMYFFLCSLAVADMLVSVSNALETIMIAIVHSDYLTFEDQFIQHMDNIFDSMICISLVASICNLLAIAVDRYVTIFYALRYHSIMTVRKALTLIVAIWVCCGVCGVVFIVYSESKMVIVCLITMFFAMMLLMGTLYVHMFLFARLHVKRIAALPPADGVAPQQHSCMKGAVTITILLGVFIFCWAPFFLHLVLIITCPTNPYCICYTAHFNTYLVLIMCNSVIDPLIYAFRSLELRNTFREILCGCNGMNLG

Chain of Melanocortin receptor 4 (Homo sapiens), P32245 (P32245 whole entry): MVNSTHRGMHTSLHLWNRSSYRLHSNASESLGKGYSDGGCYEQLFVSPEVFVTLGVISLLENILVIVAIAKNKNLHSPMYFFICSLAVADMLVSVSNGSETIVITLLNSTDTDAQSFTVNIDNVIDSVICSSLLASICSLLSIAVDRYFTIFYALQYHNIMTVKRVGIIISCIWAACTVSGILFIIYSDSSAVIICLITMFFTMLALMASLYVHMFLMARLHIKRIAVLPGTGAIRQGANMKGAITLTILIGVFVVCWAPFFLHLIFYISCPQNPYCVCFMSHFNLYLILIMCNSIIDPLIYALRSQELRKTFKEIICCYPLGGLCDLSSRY
Chain of Melanocortin receptor 1 (Homo sapiens), Q01726 (Q01726 whole entry): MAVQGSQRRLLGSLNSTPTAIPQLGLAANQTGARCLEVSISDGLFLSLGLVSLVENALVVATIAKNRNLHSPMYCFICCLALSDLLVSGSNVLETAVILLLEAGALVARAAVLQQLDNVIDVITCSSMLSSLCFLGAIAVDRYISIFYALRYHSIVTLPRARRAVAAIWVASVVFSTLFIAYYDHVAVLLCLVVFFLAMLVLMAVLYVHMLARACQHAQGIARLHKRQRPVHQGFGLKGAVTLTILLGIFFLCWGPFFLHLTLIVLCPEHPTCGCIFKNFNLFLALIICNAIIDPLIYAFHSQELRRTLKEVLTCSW
Chain of Melanocortin receptor 5 (Homo sapiens), P33032 (P33032 whole entry): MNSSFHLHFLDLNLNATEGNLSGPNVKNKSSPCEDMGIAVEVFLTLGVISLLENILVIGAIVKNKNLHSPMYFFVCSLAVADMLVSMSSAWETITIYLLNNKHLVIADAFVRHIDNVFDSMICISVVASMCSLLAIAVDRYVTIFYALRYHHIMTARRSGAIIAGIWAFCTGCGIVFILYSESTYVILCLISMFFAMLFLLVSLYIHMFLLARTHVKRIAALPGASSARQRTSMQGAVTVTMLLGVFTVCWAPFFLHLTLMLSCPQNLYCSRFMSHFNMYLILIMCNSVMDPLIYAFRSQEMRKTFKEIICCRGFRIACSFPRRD

B1: ACTH, P01189 (peptide)
chain: SYSMEHFRWGKPVGKKRRPVKVYPNGAEDESAEAFPLEF
Ki [1]: 0.09 nM | Ki [2]: 46 nM | Ki [3]: 1.2 nM | Ki [4]: 11.1 nM
